Laboratory results as given in publication PMC11780864, “RNA G-quadruplex structure-based PROTACs for targeted DHX36 protein degradation and gene activity modulation in mammalian cells”.

Target: T1, DHX36 (RHAU) (UniProt Q9H2U1 1-1008)
T1 sequence: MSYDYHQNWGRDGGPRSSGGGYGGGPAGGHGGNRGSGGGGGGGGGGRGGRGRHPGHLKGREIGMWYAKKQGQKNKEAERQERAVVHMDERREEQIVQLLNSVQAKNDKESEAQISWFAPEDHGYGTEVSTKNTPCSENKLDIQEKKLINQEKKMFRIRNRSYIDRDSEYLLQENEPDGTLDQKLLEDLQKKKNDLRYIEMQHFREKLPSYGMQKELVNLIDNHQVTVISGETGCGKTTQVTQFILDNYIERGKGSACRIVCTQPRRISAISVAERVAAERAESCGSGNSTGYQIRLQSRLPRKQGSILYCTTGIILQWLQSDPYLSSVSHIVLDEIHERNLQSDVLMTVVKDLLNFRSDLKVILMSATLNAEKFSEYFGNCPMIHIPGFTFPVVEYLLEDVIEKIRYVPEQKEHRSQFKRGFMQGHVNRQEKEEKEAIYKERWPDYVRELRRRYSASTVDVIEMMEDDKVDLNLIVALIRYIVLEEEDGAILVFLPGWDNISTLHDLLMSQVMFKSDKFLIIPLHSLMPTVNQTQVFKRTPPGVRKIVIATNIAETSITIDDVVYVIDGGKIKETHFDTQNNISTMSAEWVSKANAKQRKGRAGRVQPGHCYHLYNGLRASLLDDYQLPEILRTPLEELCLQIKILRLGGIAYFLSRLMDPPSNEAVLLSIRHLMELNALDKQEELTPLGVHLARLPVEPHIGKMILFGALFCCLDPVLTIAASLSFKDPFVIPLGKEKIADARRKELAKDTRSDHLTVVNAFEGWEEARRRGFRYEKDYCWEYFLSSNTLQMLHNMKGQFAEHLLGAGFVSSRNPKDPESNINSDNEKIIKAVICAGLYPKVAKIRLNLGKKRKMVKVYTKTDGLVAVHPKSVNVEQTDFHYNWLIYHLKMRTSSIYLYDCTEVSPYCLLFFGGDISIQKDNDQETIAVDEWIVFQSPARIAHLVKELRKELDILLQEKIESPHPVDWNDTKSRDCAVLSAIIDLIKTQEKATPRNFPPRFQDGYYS
Assay: MST; EMSA and MST: 25 mM Tris-HCl pH 7.5, 150 mM KCl, 1 mM MgCl2, 37 C 30 min; 30 nM (EMSA) or 40 nM (MST) FAM-oligo; EMSA gel 10% native PAGE, 0.5x TBE, 4 C
Details: protein: recombinant; for Kd: G4

Row | Binder | Kd (label: 5'-FAM) | Kd (label: 3'-FAM) | further results
1 | GGGCCGGCGGUGGGAGCGGAGUGGGUCGGGCGGGG (structured_RNA) [FAM_Gnai2 rG4 WT] | 37.9 ± 3.6 nM |  | 
2 | TTGGGTGGGTGGGTGGGT (structured_DNA, 5'-hexynyl clicked to AHPC-PEG2) [FAM_dG4_A (T95-2T)] |  | 303 ± 55 nM | 
3 | CGGGGCGGGUGGGGAGGGGU (structured_RNA, printed with T although called rG4) [FAM_APP rG4 WT] | 19.7 ± 2.3 nM |  | 
4 | GAGCCGGCGGUGAGAGCGGAGUGAGUCGAACGAAG (ssRNA) [FAM_Gnai2 rG4 Mut] |  |  | binding result (label: 5'-FAM, non-G4): no binding
5 | GGGUUGCGGAGGGUGGGCCU (structured_RNA, 5'-hexynyl clicked to AHPC-PEG2 (VHL ligand)) [FAM_rG4_A_PEG2 (FAM_rG4_A)] |  | 79.7 ± 17.3 nM | 
